Target: human CD28 receptor on T cells (human, UniProt P10747 19-220)
Test: cell-based or functional assay

T cell proliferation (3H-thymidine), transfected 293 HEK cells: ~3 fold
B1: Round 2 CD28BP-15 (ligand)
chain: ITPKSVTKRVKETVMLSCDYNTSTEELTSLRIYWQKDSKMVLAILPGKVQVWPEYKNRTITDMNDNPRIVILALRPSDSGTYTCVIQKPVLKGAYKLEHLASVRLMIRADFPVPTINDLGNPSPNIRRLICSTSGGFPRPHLYWLENGEELNATNTTVSQDPGTELYMISSELDFNVTNNHSIVCLIKYGELSVSQIFPWSKPKQEPPIDQLPFWVIIPVSGALVLTAVVLYCLACRHVARWKRTRRNEETVGTERLSPIYLGSAQSSG

Source: US7183376
